Substitutions are numbered along the chain they refer to. One block for each binder: values may come before it.
Tests used:
[1] = biological target: Recombinant human his-tagged IGF 1R extracellular domain protein (human) (UniProt P08069); assay: SPR, captured antibody, dissociation at pH 6
[2] = biological target: Recombinant human his-tagged IGF 1R extracellular domain protein (human) (UniProt P08069); assay: SPR, captured antibody, pH 7.4

B1: VRDN-03038 (antibody, V domains shown)
VH: QVELVESGGGVVQPGRSQRLSCAASGFTFSSYGMHWVRQAPGKGLEWVAIIWFDGSSTYYADSVRGRFTISRDNSKNTLYLQMNSLRAEDTAVYFCARELGRRYFDLWGRGTLVSVSS
VL: EIVLTQSPATLSLSPGERATLSCHASQSVSSYLAWYQQKPGQAPRLLIYDASKRATGIPARFSGSGSGTDFTLTISSLEPEDFAVYYCQQRSKWPPWTFGQGTKVESK
Kd [1]: 1.4 nM
koff [1]: 0.000115 s⁻¹
kon [1]: 82000 M⁻¹ s⁻¹
Kd [2]: 1.72 nM
koff [2]: 0.000167 s⁻¹
kon [2]: 96900 M⁻¹ s⁻¹

B3: VRDN-03047 (antibody, V domains shown)
VH: B1 VH
VL: B1 VL with H24R, L33H
Kd [1]: 3.77 nM
koff [1]: 0.000294 s⁻¹
kon [1]: 78100 M⁻¹ s⁻¹
Kd [2]: 2.95 nM
koff [2]: 0.000282 s⁻¹
kon [2]: 95700 M⁻¹ s⁻¹

B4: VRDN-03100 (second entry of that label; VH and VL pair SEQ ID NO: 223) (antibody, V domains shown)
VH: B1 VH with E3Q, Q18L, G33S, T58K, A61P, D62G, R65K, F95Y, L107I, S115T
VL: B1 VL with H24R, S28G, D50G, K53T, K93R, V105L, S107I
Kd [1]: 1.69 nM
koff [1]: 0.00107 s⁻¹
kon [1]: 630000 M⁻¹ s⁻¹
Kd [2]: 5.52 nM
koff [2]: 0.00134 s⁻¹
kon [2]: 244000 M⁻¹ s⁻¹

B5: VRDN-03043 (antibody, V domains shown)
VH: B1 VH
VL: B1 VL with H24R, V29H
Kd [1]: 18.2 nM
koff [1]: 0.0253 s⁻¹
kon [1]: 1.39e+06 M⁻¹ s⁻¹
Kd [2]: 22.4 nM
koff [2]: 0.0111 s⁻¹
kon [2]: 493000 M⁻¹ s⁻¹

B6: VRDN-03101 (antibody, V domains shown)
VH: B1 VH with E3Q, Q18L, S31D, G33T, T58K, R65K, F95Y, L107I, S115T
VL: B1 VL with H24R, S28G, D50G, K53T, K93R, V105L, S107I
Kd [1]: 1.23 nM
koff [1]: 0.000268 s⁻¹
kon [1]: 219000 M⁻¹ s⁻¹
Kd [2]: 0.785 nM
koff [2]: 7.02e-05 s⁻¹
kon [2]: 89300 M⁻¹ s⁻¹

B7: VRDN-03099 (antibody, V domains shown)
VH: B1 VH with E3Q, Q18L, G33S, T58K, A61V, R65K, F95Y, L107I, S115T
VL: B1 VL with H24R, S28G, D50G, K53T, K93R, V105L, S107I
Kd [1]: 1.34 nM
koff [1]: 0.000296 s⁻¹
kon [1]: 221000 M⁻¹ s⁻¹
Kd [2]: 2.18 nM
koff [2]: 0.000139 s⁻¹
kon [2]: 63700 M⁻¹ s⁻¹

B9: VRDN-03041 (antibody, V domains shown)
VH: B1 VH
VL: B1 VL with H24R, Q27H
Kd [1]: 0.556 nM
koff [1]: 3.61e-05 s⁻¹
kon [1]: 65000 M⁻¹ s⁻¹
Kd [2]: 3.16 nM
koff [2]: 0.0003 s⁻¹
kon [2]: 94900 M⁻¹ s⁻¹

B11: VRDN-03053 (antibody, V domains shown)
VH: B1 VH
VL: B1 VL with H24R, R54H
Kd [1]: 1.67 nM
koff [1]: 0.00016 s⁻¹
kon [1]: 95500 M⁻¹ s⁻¹
Kd [2]: 1.79 nM
koff [2]: 0.000188 s⁻¹
kon [2]: 105000 M⁻¹ s⁻¹

B14: VRDN-03055 (antibody, V domains shown)
VH: B1 VH
VL: B1 VL with H24R, T56H
Kd [1]: 1.61 nM
koff [1]: 0.00014 s⁻¹
kon [1]: 87000 M⁻¹ s⁻¹
Kd [2]: 1.92 nM
koff [2]: 0.000188 s⁻¹
kon [2]: 97700 M⁻¹ s⁻¹

B15: VRDN-03098 (antibody, V domains shown)
VH: B1 VH with E3Q, Q18L, G33S, T58K, R65K, F95Y, L107I, S115T
VL: B1 VL with H24R, S28G, D50G, K53T, K93R, V105L, S107I
Kd [1]: 1.24 nM
koff [1]: 0.000306 s⁻¹
kon [1]: 247000 M⁻¹ s⁻¹
Kd [2]: 2.05 nM
koff [2]: 0.000135 s⁻¹
kon [2]: 65900 M⁻¹ s⁻¹

B18: VRDN-03039 (antibody, V domains shown)
VH: B1 VH
VL: B1 VL with H24R, A25H
Kd [1]: 14.3 nM
koff [1]: 0.00563 s⁻¹
kon [1]: 394000 M⁻¹ s⁻¹
Kd [2]: 11.3 nM
koff [2]: 0.00332 s⁻¹
kon [2]: 294000 M⁻¹ s⁻¹

B19: VRDN-03102 (antibody, V domains shown)
VH: B1 VH with E3Q, Q18L, S31D, G33T, T58K, A61V, R65K, F95Y, L107I, S115T
VL: B1 VL with H24R, S28G, D50G, K53T, K93R, V105L, S107I
Kd [1]: 1.46 nM
koff [1]: 0.000319 s⁻¹
kon [1]: 218000 M⁻¹ s⁻¹
Kd [2]: 2.68 nM
koff [2]: 0.000173 s⁻¹
kon [2]: 64500 M⁻¹ s⁻¹

B20: VRDN-03042 (antibody, V domains shown)
VH: B1 VH
VL: B1 VL with H24R, S28H
Kd [1]: 1.2 nM
koff [1]: 9.44e-05 s⁻¹
kon [1]: 78400 M⁻¹ s⁻¹
Kd [2]: 1.53 nM
koff [2]: 0.000172 s⁻¹
kon [2]: 112000 M⁻¹ s⁻¹

B21: VRDN-03044 (antibody, V domains shown)
VH: B1 VH
VL: B1 VL with H24R, S30H
Kd [1]: 3.79 nM
koff [1]: 0.000217 s⁻¹
kon [1]: 57300 M⁻¹ s⁻¹
Kd [2]: 1.96 nM
koff [2]: 0.000192 s⁻¹
kon [2]: 98400 M⁻¹ s⁻¹

B22: VRDN-03046 (antibody, V domains shown)
VH: B1 VH
VL: B1 VL with H24R, Y32H
Kd [1]: 1.87 nM
koff [1]: 0.000159 s⁻¹
kon [1]: 84800 M⁻¹ s⁻¹
Kd [2]: 1.58 nM
koff [2]: 0.000162 s⁻¹
kon [2]: 103000 M⁻¹ s⁻¹

B24: VRDN-03045 (antibody, V domains shown)
VH: B1 VH
VL: B1 VL with H24R, S31H
Kd [1]: 0.624 nM
koff [1]: 5.02e-05 s⁻¹
kon [1]: 80500 M⁻¹ s⁻¹
Kd [2]: 1.29 nM
koff [2]: 0.000135 s⁻¹
kon [2]: 105000 M⁻¹ s⁻¹

B26: VRDN-03050 (antibody, V domains shown)
VH: B1 VH
VL: B1 VL with H24R, A51H
Kd [1]: 2.25 nM
koff [1]: 0.00017 s⁻¹
kon [1]: 75800 M⁻¹ s⁻¹
Kd [2]: 2.03 nM
koff [2]: 0.00021 s⁻¹
kon [2]: 103000 M⁻¹ s⁻¹

B27: VRDN-03049 (antibody, V domains shown)
VH: B1 VH
VL: B1 VL with H24R, D50H
Kd [1]: 2.7 nM
koff [1]: 0.000201 s⁻¹
kon [1]: 74300 M⁻¹ s⁻¹
Kd [2]: 1.56 nM
koff [2]: 0.000183 s⁻¹
kon [2]: 117000 M⁻¹ s⁻¹

B28: VRDN-03051 (antibody, V domains shown)
VH: B1 VH
VL: B1 VL with H24R, S52H
Kd [1]: 2.12 nM
koff [1]: 0.000162 s⁻¹
kon [1]: 76200 M⁻¹ s⁻¹
Kd [2]: 1.86 nM
koff [2]: 0.000203 s⁻¹
kon [2]: 110000 M⁻¹ s⁻¹

B29: VRDN-03054 (antibody, V domains shown)
VH: B1 VH
VL: B1 VL with H24R, A55H
Kd [1]: 0.866 nM
koff [1]: 8.18e-05 s⁻¹
kon [1]: 94500 M⁻¹ s⁻¹
Kd [2]: 1.11 nM
koff [2]: 0.000104 s⁻¹
kon [2]: 93500 M⁻¹ s⁻¹

Now from value to binder:

Kd [1]: 1.63 nM
koff [1]: 0.000283 s⁻¹
kon [1]: 173000 M⁻¹ s⁻¹
Kd [2]: 3.05 nM
koff [2]: 0.000259 s⁻¹
kon [2]: 85000 M⁻¹ s⁻¹
B2: VRDN-03104 (antibody, V domains shown)
VH: QVQLVESGGGVVQPGRSLRLSCAASGFTFSDHYMDWVRQAPGKGLEWVAIIWFDGSSKYYADSVKGRFTISRDNSKNTLYLQMNSLRAEDTAVYYCARELGRRYFDIWGRGTLVTVSS
VL: B1 VL with H24R, S28G, D50G, K53T, K93R, V105L, S107I

Kd [1]: 2.06 nM
koff [1]: 0.000479 s⁻¹
kon [1]: 233000 M⁻¹ s⁻¹
Kd [2]: 4.71 nM
koff [2]: 0.000362 s⁻¹
kon [2]: 77000 M⁻¹ s⁻¹
B8: VRDN-03111 (antibody, V domains shown)
VH: B2 VH with H32Y, Y33T, D35H, A61V
VL: EIVMTQSPATLSVSPGERATLSCRASQGVSSYLAWYQQKPGQAPRLLIYGASTRATGIPARFSGSGSGTEFTLTISSLQSEDFAVYYCQQRSRWPPWTFGQGTKLEIK

Kd [1]: 1.99 nM
koff [1]: 0.000281 s⁻¹
kon [1]: 141000 M⁻¹ s⁻¹
Kd [2]: 0.89 nM
koff [2]: 0.000361 s⁻¹
kon [2]: 405000 M⁻¹ s⁻¹
B10: VRDN-03105 (antibody, V domains shown)
VH: B2 VH with A61V
VL: B8 VL with M4L, V13L, E70D, Q79E, S80P

Kd [1]: 1.81 nM
koff [1]: 0.00218 s⁻¹
kon [1]: 1.2e+06 M⁻¹ s⁻¹
Kd [2]: 16.1 nM
koff [2]: 0.00105 s⁻¹
kon [2]: 65100 M⁻¹ s⁻¹
B12: VRDN-03106 (antibody, V domains shown)
VH: B2 VH with A61P, D62G
VL: B8 VL with M4L, V13L, E70D, Q79E, S80P

Kd [1]: 1.85 nM
koff [1]: 0.000413 s⁻¹
kon [1]: 224000 M⁻¹ s⁻¹
Kd [2]: 3.97 nM
koff [2]: 0.000195 s⁻¹
kon [2]: 49000 M⁻¹ s⁻¹
B13: VRDN-03108 (antibody, V domains shown)
VH: B2 VH with D31S, H32Y, Y33S, D35H, A61V
VL: B8 VL

Kd [1]: 2.72 nM
koff [1]: 0.00049 s⁻¹
kon [1]: 180000 M⁻¹ s⁻¹
Kd [2]: 6.74 nM
koff [2]: 0.000286 s⁻¹
kon [2]: 42500 M⁻¹ s⁻¹
B16: VRDN-03109 (antibody, V domains shown)
VH: B2 VH with D31S, H32Y, Y33S, D35H, A61P, D62G
VL: B8 VL

Kd [1]: 1.44 nM
koff [1]: 0.00216 s⁻¹
kon [1]: 1.5e+06 M⁻¹ s⁻¹
Kd [2]: 12.8 nM
koff [2]: 0.00637 s⁻¹
kon [2]: 498000 M⁻¹ s⁻¹
B17: VRDN-03103 (antibody, V domains shown)
VH: B2 VH with H32Y, Y33T, D35H, A61P, D62G
VL: B8 VL with M4L, V13L, E70D, Q79E, S80P

Kd [1]: 1.7 nM
koff [1]: 0.000378 s⁻¹
kon [1]: 223000 M⁻¹ s⁻¹
Kd [2]: 3.45 nM
koff [2]: 0.000209 s⁻¹
kon [2]: 60500 M⁻¹ s⁻¹
B23: VRDN-03110 (antibody, V domains shown)
VH: B2 VH with H32Y, Y33T, D35H
VL: B8 VL

Kd [1]: 1.42 nM
koff [1]: 0.000344 s⁻¹
kon [1]: 242000 M⁻¹ s⁻¹
Kd [2]: 2.69 nM
koff [2]: 0.000156 s⁻¹
kon [2]: 58000 M⁻¹ s⁻¹
B25: VRDN-03107 (antibody, V domains shown)
VH: B2 VH with D31S, H32Y, Y33S, D35H
VL: B8 VL

Kd [1]: 2.74 nM
koff [1]: 0.000463 s⁻¹
kon [1]: 169000 M⁻¹ s⁻¹
Kd [2]: 2.97 nM
koff [2]: 0.000322 s⁻¹
kon [2]: 109000 M⁻¹ s⁻¹
B30: VRDN-03112 (antibody, V domains shown)
VH: B2 VH with H32Y, Y33T, D35H, A61P, D62G
VL: B8 VL

Reference: patent US20240352133A1
